Results taken from patent publication US20180155451A1 (published 2018).

B1: GpH7-A5/GpH7-B3 variant I336_14T/GpL16-k0 (heterodimerized antibody, He Ab) (antibody, human IgG1, kappa)
heavy 1: not shown
heavy 2: not shown
light: DIVMTQSPLSLPVTPGEPASISCQASESLVHSNRNTYLHWYLQKPGQSPQLLIYKVSNRFSGVPDRFSGSGSGTDFTLKISRVEAEDVGVYYCSQNTHVPPTFGQGTKVEIERTVAAPSVFIFPPSDEQLKSGTASVVCLLNNFYPREAKVQWKVDNALQSGNSQESVTEQDSKDSTYSLSSTLTLSKADYEKHKVYACEVTHQGLSSPVTKSFNRGEC
notes: Anti-glypican-3 IgG1 heterodimerized antibody; the alteration stands only in the GpH7-B3 chain; Positions in EU numbering; also called I336T
B2: GpH7-A5/GpH7-B3 variant (H268D)/GpL16-k0 (antibody, human IgG1, kappa)
heavy 1: not shown
heavy 2: not shown
light: B1 light
notes: also called H268_09D; He Ab
B3: GpH7-A5/GpH7-B3 variant (S298A)/GpL16-k0 (antibody, human IgG1, kappa)
heavy 1: not shown
heavy 2: not shown
light: B1 light
notes: also called S298_02A; GpH7-A5/GpH7-B3-15-02A/GpL16-k0
B4: GpH7-A5/GpH7-B3 variant (H268A)/GpL16-k0 (antibody, human IgG1, kappa)
heavy 1: not shown
heavy 2: not shown
light: B1 light
notes: also called H268_02A; He Ab
B5: GpH7-A5/GpH7-B3 variant (A330P)/GpL16-k0 (antibody, human IgG1, kappa)
heavy 1: not shown
heavy 2: not shown
light: B1 light
notes: also called A330_05P; He Ab
B6: GpH7-A5/GpH7-B3 variant K334_20W/GpL16-k0 (heterodimerized antibody, He Ab) (antibody, human IgG1, kappa)
heavy 1: not shown
heavy 2: not shown
light: B1 light
notes: Anti-glypican-3 IgG1 heterodimerized antibody; the alteration stands only in the GpH7-B3 chain; Positions in EU numbering; also called K334W
B7: GpH7-A5/GpH7-B3 variant I336_15Y/GpL16-k0 (heterodimerized antibody, He Ab) (antibody, human IgG1, kappa)
heavy 1: not shown
heavy 2: not shown
light: B1 light
notes: Anti-glypican-3 IgG1 heterodimerized antibody; the alteration stands only in the GpH7-B3 chain; Positions in EU numbering; also called I336Y
B8: GpH7-A5/GpH7-B3 variant (K326T)/GpL16-k0 (antibody, human IgG1, kappa)
heavy 1: not shown
heavy 2: not shown
light: B1 light
notes: also called K326_14T; He Ab
B9: GpH7-A5/GpH7-B3 variant (K326I)/GpL16-k0 (antibody, human IgG1, kappa)
heavy 1: not shown
heavy 2: not shown
light: B1 light
notes: also called K326_07I; He Ab
B10: GpH7-A5/GpH7-B3 variant K334_15Y/GpL16-k0 (heterodimerized antibody, He Ab) (antibody, human IgG1, kappa)
heavy 1: not shown
heavy 2: not shown
light: B1 light
notes: Anti-glypican-3 IgG1 heterodimerized antibody; the alteration stands only in the GpH7-B3 chain; Positions in EU numbering; also called K334Y
B11: GpH7-A5/GpH7-B3 variant (H268E)/GpL16-k0 (antibody, human IgG1, kappa)
heavy 1: not shown
heavy 2: not shown
light: B1 light
notes: also called H268_10E; He Ab
B12: GpH7-A5/GpH7-B3 variant (K326D)/GpL16-k0 (antibody, human IgG1, kappa)
heavy 1: not shown
heavy 2: not shown
light: B1 light
notes: also called K326_09D; He Ab
B13: GpH7-A5/GpH7-B3 variant K334_13S/GpL16-k0 (heterodimerized antibody, He Ab) (antibody, human IgG1, kappa)
heavy 1: not shown
heavy 2: not shown
light: B1 light
notes: Anti-glypican-3 IgG1 heterodimerized antibody; the alteration stands only in the GpH7-B3 chain; Positions in EU numbering; also called K334S
B14: GpH7-A5/GpH7-B3 variant (K334D)/GpL16-k0 (antibody, human IgG1, kappa)
heavy 1: not shown
heavy 2: not shown
light: B1 light
notes: also called K334_09D; He Ab
B15: GpH7-A5/GpH7-B3 variant (K334E)/GpL16-k0 (antibody, human IgG1, kappa)
heavy 1: not shown
heavy 2: not shown
light: B1 light
notes: also called K334_10E; He Ab
B16: GpH7-A5/GpH7-B3 variant K334_19Q/GpL16-k0 (heterodimerized antibody, He Ab) (antibody, human IgG1, kappa)
heavy 1: not shown
heavy 2: not shown
light: B1 light
notes: Anti-glypican-3 IgG1 heterodimerized antibody; the alteration stands only in the GpH7-B3 chain; Positions in EU numbering; also called K334Q
B17: GpH7-A5/GpH7-B3 variant I336_19Q/GpL16-k0 (heterodimerized antibody, He Ab) (antibody, human IgG1, kappa)
heavy 1: not shown
heavy 2: not shown
light: B1 light
notes: Anti-glypican-3 IgG1 heterodimerized antibody; the alteration stands only in the GpH7-B3 chain; Positions in EU numbering; also called I336Q
B18: GpH7-A5/GpH7-B3 variant K334_10E/GpL16-k0 (heterodimerized antibody, He Ab) (antibody, human IgG1, kappa)
heavy 1: not shown
heavy 2: not shown
light: B1 light
notes: Anti-glypican-3 IgG1 heterodimerized antibody; the alteration stands only in the GpH7-B3 chain (K439E); GpH7-A5 carries D356K/H435R; Positions in EU numbering; also called K334E
B19: GpH7-A5/GpH7-B3 variant (K334I)/GpL16-k0 (antibody, human IgG1, kappa)
heavy 1: not shown
heavy 2: not shown
light: B1 light
notes: also called K334_07I; He Ab
B20: GpH7-A5/GpH7-B3 variant (A330M)/GpL16-k0 (antibody, human IgG1, kappa)
heavy 1: not shown
heavy 2: not shown
light: B1 light
notes: also called A330_06M; He Ab
B21: GpH7-A5/GpH7-B3 variant K334_14T/GpL16-k0 (heterodimerized antibody, He Ab) (antibody, human IgG1, kappa)
heavy 1: not shown
heavy 2: not shown
light: B1 light
notes: Anti-glypican-3 IgG1 heterodimerized antibody; the alteration stands only in the GpH7-B3 chain; Positions in EU numbering; also called K334T
B22: GpH7-A5/GpH7-B3 variant (A330F)/GpL16-k0 (antibody, human IgG1, kappa)
heavy 1: not shown
heavy 2: not shown
light: B1 light
notes: also called A330_04F; He Ab

Key:
[1] = target: T1, FcγRIIIa extracellular domain with C-terminal His tag (human, UniProt P08637 17-208); assay: SPR (Biacore); ratio of He/Con_3a (FcγRIIIa) to He/Con_2b (FcγRIIb)
T1 construct: extracellular domain; Soluble receptor expressed in FreeStyle293 cells, used as analyte in Biacore; also called FcgRIIIa; 3a; not shown: His tag attached to the C terminus
Method in brief: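 Measurements were made at 25 °C with HBS-EP+ as running buffer. Each antibody sat on a chip bearing its antigen peptide, amine-coupled or streptavidin-bound, while FcγR was passed over; 10 mM glycine-HCl, pH 1.5 removed captured antibody.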

[2] = target: T2, FcγRIIb extracellular domain with C-terminal His tag (human, UniProt P31994 43-217); assay: SPR (Biacore), antibody captured via antigen peptide, FcγR as analyte; binding amount relative to control heterodimerized antibody
T2 construct: extracellular domain; Soluble receptor expressed in FreeStyle293 cells, used as analyte in Biacore; also called FcgRIIb; 2b; not shown: His tag attached to the C terminus
T2 sequence (looked up): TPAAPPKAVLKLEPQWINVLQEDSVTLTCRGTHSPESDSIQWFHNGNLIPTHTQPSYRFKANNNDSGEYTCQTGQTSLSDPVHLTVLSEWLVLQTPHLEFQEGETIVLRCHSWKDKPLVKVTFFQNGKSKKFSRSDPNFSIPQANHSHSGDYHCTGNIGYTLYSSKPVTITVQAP
Procedure: (§1) The heterodimerized antibodies He Abs in which one of the H chains was introduced with an alteration were assayed for their binding activities to each activating FcγR and inhibitory FcγR according to the method described in Example 4. […] The activating FcγRs in FIGS. 26, 27, 28, and 29 are FcγRIa, FcγRIIa (R), FcγRIIa (H), and FcγRIIIa, respectively.
(§2) Analysis of interaction between objective antibody and the FcγR was carried out using Biacore T100 (GE Healthcare). HBS-EP+ (GE Healthcare) was used as the running buffer, and the measurement temperature was set to 25° C. Chips produced by immobilizing the antigen peptide by the amine coupling method to a Series S Sencor Chip CM5 (GE Healthcare), or alternatively, chips produced by allowing preliminarily biotinylated antigen peptides to interact with and immobilize onto a Series S Sensor Chip SA (certified) (GE Healthcare) were used. Antibodies of interest were captured onto an antigen peptide-immobilized chip, and allowed to interact to each FcγR diluted with running buffer. To regenerate and repeatedly use the chip, the antibodies captured on the chip were washed off by reacting 10 mM glycine-HCl, pH 1.5.

[3] = target: T1, FcγRIIIa extracellular domain with …; assay: as above
Procedure: as §1, §2

FcgRIIIa F = target: T3, FcgRIIIa F (human, UniProt P08637 17-208); assay: SPR (Biacore); binding of the heterodimerized antibody relative to GpH7-A5/GpH7-B3/GpL16-k0 = 100
T3 construct: extracellular domain; also called FcγRIIIa F; 3aF; not shown: His tag attached to the C terminus
T3 sequence (P08637 17-208): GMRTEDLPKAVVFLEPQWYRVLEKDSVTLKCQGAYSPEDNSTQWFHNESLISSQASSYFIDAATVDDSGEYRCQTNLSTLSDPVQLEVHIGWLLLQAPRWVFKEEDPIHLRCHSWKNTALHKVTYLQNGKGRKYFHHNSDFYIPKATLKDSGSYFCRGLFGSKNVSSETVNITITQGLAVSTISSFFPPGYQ

T1 sequence (P08637 17-208): as above

| Binder | IIIa/IIb (He_3a/2b) [1] | He/Con_2b (IIb binding) [2] | He/Con_3a (IIIa binding) [3] | He/Con_3aF (FcgRIIIa F) |
| --- | --- | --- | --- | --- |
| B1 | 1.21 ratio | 89.5 relative binding, GpH7-A5/GpH7-B3/GpL16-k0 = 100 | 108 relative binding, GpH7-A5/GpH7-B3/GpL16-k0 = 100 | – |
| B2 | – | – | – | 195 |
| B3 | – | – | – | 151 |
| B4 | – | – | – | 121 |
| B5 | – | – | – | 152 |
| B6 | 1.23 ratio | 104 relative binding, GpH7-A5/GpH7-B3/GpL16-k0 = 100 | 128 relative binding, GpH7-A5/GpH7-B3/GpL16-k0 = 100 | – |
| B7 | 1.28 ratio | 68.2 relative binding, GpH7-A5/GpH7-B3/GpL16-k0 = 100 | 87.3 relative binding, GpH7-A5/GpH7-B3/GpL16-k0 = 100 | – |
| B8 | – | – | – | 140 |
| B9 | – | – | – | 153 |
| B10 | 1.29 ratio | 109 relative binding, GpH7-A5/GpH7-B3/GpL16-k0 = 100 | 141 relative binding, GpH7-A5/GpH7-B3/GpL16-k0 = 100 | – |
| B11 | – | – | – | 184 |
| B12 | – | – | – | 148 |
| B13 | 1.31 ratio | 111 relative binding, GpH7-A5/GpH7-B3/GpL16-k0 = 100 | 145 relative binding, GpH7-A5/GpH7-B3/GpL16-k0 = 100 | – |
| B14 | – | – | – | 164 |
| B15 | – | – | – | 186 |
| B16 | 1.25 ratio | 109 relative binding, GpH7-A5/GpH7-B3/GpL16-k0 = 100 | 136 relative binding, GpH7-A5/GpH7-B3/GpL16-k0 = 100 | – |
| B17 | 1.59 ratio | 58.2 relative binding, GpH7-A5/GpH7-B3/GpL16-k0 = 100 | 92.5 relative binding, GpH7-A5/GpH7-B3/GpL16-k0 = 100 | – |
| B18 | 1.58 ratio | 114 relative binding, GpH7-A5/GpH7-B3/GpL16-k0 = 100 | 181 relative binding, GpH7-A5/GpH7-B3/GpL16-k0 = 100 | – |
| B19 | – | – | – | 156 |
| B20 | – | – | – | 139 |
| B21 | 1.23 ratio | 115 relative binding, GpH7-A5/GpH7-B3/GpL16-k0 = 100 | 141 relative binding, GpH7-A5/GpH7-B3/GpL16-k0 = 100 | – |
| B22 | – | – | – | 144 |
